Measurements from paper PMC4555475.

Assays:
[1] = target: voltage-gated Ca^2+ channel complex; assay: FRET or BRET
[2] = target: KpBest, bacterial homolog of human bestrophin 1 (not stated (bacterial))

## calmodulin (from UniProt P0DP23 1-149) (natural protein)
[1]
  stoichiometry N: 1

## KpBest, bacterial homolog of human bestrophin 1 (natural protein)
[2]
  stoichiometry N: 5
